Data reported in paper PMC10995199, “Architecture and regulation of filamentous human cystathionine beta-synthase” (Nature Communications, 2024).

Target: human cystathionine beta-synthase regulatory domain alone with the loop deletion (CBS^RDΔ516–525) (human) (UniProt P35520)
Assay: SEC + native gel or EMSA; control constructs in analytical Superose 6 gel filtration and clear-native and blue-native PAGE (Supplementary Fig. 2); self-association

stoichiometry N: 2
Substance: human cystathionine beta-synthase regulatory domain alone with the loop deletion (CBS^RDΔ516–525) (from UniProt P35520 406-515) (domain or fragment)
